{"source": "patent US20240093191A1", "about": "“COMPOSITIONS AND METHODS FOR TREATING DISEASE ASSOCIATED WITH DUX4 OVEREXPRESSION” (RESEARCH INSTITUTE AT NATIONWIDE CHILDREN'S HOSPITAL, priority 2021, published 2024)", "molecules": {"B1": {"name": "U6.mir-675: U6 promoter-driven mir-675 expression plasmid with 40 nt 5' and 47 nt 3' flanking sequences (nucleic acid)", "DNA": "GACGCCGCCATCTCTAGGCCCGCGCCGGCCCCCTCGCACAGACTTGTGGGAGAAGCTCGGCTACTCCCCTGCCCCGGTTAATTTGCATATAATATTTCCTAGTAACTATAGAGGCTTAATGTGCGATAAAAGACAGATAATCTGTTCTTTTTAATACTAGCTACATTTTACATGATAGGCTTGGATTTCTATAAGAGATACAAATACTAAATTATTATTTTAAAAAACAGCACAAAAGGAAACTCACCCTAACTGTAAAGTAATTGTGTGTTTTGAGACTATAAATATCCCTTGGAGAAAAGCCTTGTTTGCGTTTAGTGAACCGTCAGATGGTACCGTTTAAACTCGAGCCCAGGGTCTGGTGCGGAGAGGGCCCACAGTGGACTTGGTGACGCTGTATGCCCTCACCGCTCAGCCCCTGGGACTAGAGCGGCCGCCACAGCGGGGAGATCCAGACATGATAAGATACATTTTTT"}}, "system": "DUX4-FL (DUX4 ORF + 3'UTR, RenLuc-DUX4-FL)", "test": "Dual-luciferase assay, RenLuc-DUX4-FL reporter co-transfected with miRNA plasmids in HEK293 cells", "assay_type": "cell-based, human", "from_the_text": "FIG. 1A. Dual-luciferase assay to test the ability of U6.mir-675 to target DUX4. Shown here is the mir-675 expression plasmid used in this study. In this construct, the RNA polymerase III U6 promoter (U6p) controls the expression of mir-675. A terminal signal formed of a stretch of six T nucleotides allows the termination of transcription. On the right, the secondary structure of the mir-675 along with its 5′ and 3′ end flanking sequences (Boxed) is shown. At the 5′ end, the flanking sequence is of 40 nucleotides long and at the 3′ end, the flanking sequence is of 47 nucleotides long starting from the nucleotide at position 114. U6.mir-675 was tested to target DUX4 using the dual-luciferase assay. To do this, DUX4 was cloned in the RenLuc-DUX4-FL expression plasmid (FIG. 1A), i.e., DUX4-FL (DUX4 ORF without V5 tag+3′UTR) was PCR amplified using CMV.DUX4-FLΔV5 as template with the following primers: forward: 5′ […] 3′ (SEQ ID NO: 125), reverse: 5′ […] 3′ (SEQ ID NO: 126). The PCR product was then cloned into a previously designed RenLuc SD5 mutant plasmid using XhoI/SpeI restriction sites and the RenLuc.SD5 mutant-DUX4 3′UTR plasmid backbone. The Renilla luciferase gene has a splicing donor mutation (*SID5) that prevents the alternative splicing of the DUX4-FL mRNA (Ansseau et al. (2015) PLoS One, 10, e0118813). The dual-luciferase assay was performed by co-transfecting the RenLuc-DUX4-FL and U6.mir-675 expression plasmids into the human embryonic kidney HEK293 cells. 48 hours after transfection, both the Renilla and Firefly luciferase activities were measured. The latter was used to normalize for Renilla luciferase activity. The non-targeting RenLuc control backbone plasmid (RenLuc) was co-transfected with U6.mir-675 and the RenLuc-DUX4-FL co-transfected with U6.milacZ as negative control reactions. In the other reactions, mir-675 reduced the relative Renilla luciferase activity by 24±3% (P<0.0001, ANOVA, N=3), 28±2% (P<0.0001, ANOVA, N=3) and 33±3% (P<0.0001, ANOVA, N=3) at a molarity ratio U6.mir-675: RenLuc-DUX4-FL (n:n) of 10 to 1, 20 to 1 and 40 to 1, respectively. All readings were normalized to the U6.milacZ (negative control). Six replicate data were averaged per experiment and individual experiments were performed in triplicate (N=3). Results were reported as the average relative Renilla luciferase activity±SEM for all combined experiments. […] A representative western blot gel and the quantification results of three independent western blot replicates (N=3) performed on 15 μg of total protein extracts collected from HEK293 cells 24 hours after co-transfection with the AAV.CMV.DUX4-FL and the U6.mir-675 or the human long non-coding H19 expression plasmid (CMV.H19) is shown here. […]", "data": [{"molecule": "B1", "values": [{"measurement": "reduction of relative Renilla luciferase activity", "setting": "miRNA:RenLuc-DUX4-FL molar ratio 10 to 1, 48 h, normalized to U6.milacZ", "value": "24±3", "unit": "%"}, {"measurement": "reduction of relative Renilla luciferase activity", "setting": "miRNA:RenLuc-DUX4-FL molar ratio 20 to 1, 48 h, normalized to U6.milacZ", "value": "28±2", "unit": "%"}, {"measurement": "reduction of relative Renilla luciferase activity", "setting": "miRNA:RenLuc-DUX4-FL molar ratio 40 to 1, normalized to milacZ", "value": "33±3", "unit": "%"}]}]}
